From PMC6018538, “The CYP71AZ P450 Subfamily: A Driving Factor for the Diversification of Coumarin Biosynthesis in Apiaceous Plants” (Frontiers in Plant Science, 2018)

Legend:
COc1ccc2cc(C)c(=O)oc2c1 = assay: cells, lysate or membranes; conditions: NADPH; product 8-hydroxy-3-methyl-7-methoxycoumarin
COc1ccc2oc(=O)ccc2c1 = assay: cells, lysate or membranes; conditions: NADPH; product scopoletin (P04)
COc1cc2ccc(=O)oc2cc1O = assay: cells, lysate or membranes; conditions: NADPH; product fraxetin
COc1ccc2ccc(=O)oc2c1 = assay: cells, lysate or membranes; conditions: NADPH; product daphnetin 7-methyl ether
CYP71AZ4 = CYP71AZ4 (Pastinaca sativa, UniProt A0A2Z5D854); conditions: read-out: Apparent affinity (μM) / CYP71AZ4; NADPH; product xanthotoxol
Sequence of CYP71AZ4 (A0A2Z5D854 whole entry): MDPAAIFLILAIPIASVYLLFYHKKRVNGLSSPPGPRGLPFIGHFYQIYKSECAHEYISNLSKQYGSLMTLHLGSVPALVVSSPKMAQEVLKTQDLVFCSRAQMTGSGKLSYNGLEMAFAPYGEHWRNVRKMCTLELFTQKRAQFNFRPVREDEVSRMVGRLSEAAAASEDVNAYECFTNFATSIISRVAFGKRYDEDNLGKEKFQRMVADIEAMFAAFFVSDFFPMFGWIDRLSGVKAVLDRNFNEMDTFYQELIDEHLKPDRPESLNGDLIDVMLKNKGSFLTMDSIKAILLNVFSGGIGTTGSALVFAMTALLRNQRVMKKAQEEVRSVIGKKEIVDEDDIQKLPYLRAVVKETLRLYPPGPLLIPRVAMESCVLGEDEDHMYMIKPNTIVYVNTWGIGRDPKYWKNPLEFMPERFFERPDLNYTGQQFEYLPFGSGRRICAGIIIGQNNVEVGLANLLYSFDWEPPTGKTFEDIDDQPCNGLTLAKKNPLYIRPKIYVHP

[1] = substrate: O=c1ccc2cc(O)c(O)cc2o1; assay: cells, lysate or membranes; conditions: NADPH; product 6,7,8-trihydroxycoumarin

CYP71AZ4 (Pastinaca sativa) gave a Km (COc1ccc2cc(C)c(=O)oc2c1) of 159.9 ± 41.1 µM, a Km (COc1ccc2oc(=O)ccc2c1) of 9.5 ± 1.5 µM and a Km (COc1cc2ccc(=O)oc2cc1O) of 762.2 ± 586.4 µM. For the same molecule, the Km (COc1ccc2ccc(=O)oc2c1) was 72.5 ± 15.2 µM.

O=c1ccc2cc3ccoc3cc2o1 [psoralen] showed a Km (CYP71AZ4) of 11.3 ± 2.2 µM.

B1: CYP71AZ3 (Pastinaca sativa) (protein)
chain: MEPVFLFLILAFPIASVYLLFYHKKRVVGLSAPPGPPGLPFIGNFHQLYKASSTHEYLWSLSKQYGSLVTLRMGSVPILVVSSPKMAKEVLQTQDLIYCSRPAMTGMQKLSYNGLDVAFSPYTDQWRHTRKFCTLELFTQKRAQLNFRPVREQEVSRMIARLSETAAASKDVNAYEWFSNLATCIISRVAFGKRYDEDGIGKERFQRMLSEIDAMFIGFFVSDFFPMFGWIDKLSGMRDRLDRTFKDLDMFYQELIDEHLKPNRLESPTEDLIDVMLKNEGSSLTKDSMKAILLNVFNGGTGTTATVLAWAMTALLRNQGVMKKAQEEIRSVIGKKGKVDEDDFPSLPYLRAVVKETMRLYPPAPVLVPRETMESSIIGEDKDHMYMVKPKTVVYISMWAIGRDPKTWKNPMEFVPERFLERPDINYKGQQFEYVPFGAGRRICAGINLGVTTVELALANLLYTFDWEPPAGMRFEDIDDETTNGLALQKKNALYIRPKKYMFP
For B1, the Km [1] was 248.6 ± 51.9 µM.
